What is called EC50 is the concentration giving half of the maximal effect. A lower EC50 goes with a more potent agent.

The target in the experiment is Rfa3 DNA-binding domain-E (DBD-E), OB domain, residues 1-99 (S. cerevisiae, UniProt P26755 1-99, fluorescent label NT-495 (Monolith NT protein-labeling Kit Blue-Cys) on free cysteine residues). As to the kind of experiment: MST.
Sequence of Rfa3 DNA-binding domain-E (DBD-E), OB domain, residues 1-99 (P26755 1-99): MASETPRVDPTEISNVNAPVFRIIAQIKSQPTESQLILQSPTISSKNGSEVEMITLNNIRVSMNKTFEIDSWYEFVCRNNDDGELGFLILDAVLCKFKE

B1: Rfa1 DBD-A (residues 178-294) phosphomimetic S178D (domain or fragment)
chain: DQKTRPIFAIEQLSPYQNVWTIKARVSYKGEIKTWHNQRGDGKLFNVNFLDTSGEIRATAFNDFATKFNEILQEGKVYYVSKAKLQPAKPQFTNLTHPYELNLDRDTVIEECFDESN
In turn, B1 returned a concentration giving a half-maximal response (EC50) of 36 µM.

The values are drawn from article PMC6303327 (2018).
